Test results from the domain aggregation screens of Martell et al. (2025).

Experiment: soluble fraction after stress (log2 fold change); higher = more stays soluble; pooled small domains, quantitative proteomics
Conditions: stress: 75 degC
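Note: 20 min heating vs room temperature control held 20 min.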

Sequence	soluble fraction (log2)
HMVKLQATPSQRKTLDELYVQLKKLEPTAKEDLSLLRRLENSHLVSKQEAQGLISKAIGRVGALAVEQQP	0.0219
HMVKNTIHVDLKGEVNKPGVYEVEEGTIVNDLITLANGFTKNAYQDNINLSKKLTDEMVIVVSKKGS	0.476
HMVKNVVIPDVSNKAPVDASNQLTDLGFEVVTEYKYIASDTIEEGKVVKTSPEIGSKRKYGQKITLYISSG	-1.23
HMVKRAYGEYVNVKLTDADLSKLKADFPADWQERIERLSTYMASTGKTYKNHLATIRNWARRDAERVSA	0.958
HMVKVSVYPNPAVDRITISGEVKAYAVYDATGKVVMKDTDYRGGAIGVSHLPAGIYIVRTDAGAVTVNK	-0.595
HMVLSVRDRMVQILDQVKTGEYKRIEDFFSADEGRTGFVVSFVAILELVKGGLLTITQSKNLAPIYVRLPN	-0.0123
HMVLVEEYDTKDSASTFKIGYYARYNTKYGTPSKVGSYADNQRSGIWTFYTDSLKTYFKYNYSTGLIL	0.0292
HMVLVGERRQKILEVVSSGKAVTVEELSRILHVSPSTVRRDLRFLESRGLLYRTHGGAMPPV	-1.95
HMVLVKFEWTPPDARILVDDHPVEARDKEMELPEGTHHVQALAPRGSGYESTVTDIEVRQGMDPVRIAL	-0.292
HMVMRHTVEHDAELLAVLRLMYPASSSTKLRKMLTQGRVLVNDDVVHRAKHGVASGDTVDVIVRQRAE	-2.21
HMVNFKLIGNKIAEARKKVNISQAQLAQRLFISSQAVGKWERGESMPDIITFNRLAEILGVDLNYFSE	-2.53
HMVNPDAPAPLYIVNGKETDKNIALAIKPEDVQDVRIIKNTVALQVYGEKGKNGVVIINTKPGV	0.132
HMVNSADLAAKPFIDLLVSTRQQLREAKQYDLADTIRDELTNHGITIEDKPQGSEWQYEFNPNS	0.0875
HMVNTYILNNKEYPIEIIRKNNKNTYLRVKEGKIIVTTNYLTSSFTINKLIKDNTSFINKALLKEN	-0.71
HMVNYKEILRLAHEGYSQRQIATNIGNSRNTVSEVLDAAKAANIAWPPEETVTNEQLGAILFPNRH	0.349
HMVNYKEILRLSAEGNSQRQIAAGSGNSRNTVIEVLEAARARGITWPLDEPVTNEQLEAILFPNRY	-0.072
HMVPEETKQFINQLNHGSLSIRMNAANNLEKLGLLAIPEIEAALPKAHGEAAFRLPRLLHALVLRETEYF	0.185
HMVPEMIRDVISKSIRDMGVLPDHMQINERIALIQSLKKQQILGIKGAVAETARQLGISVPTVYRYMKKG	-0.946
HMVPFISVTPTSLSFAKGGESKTVDIEASGAFSVGKVPTGFNLEVVNGRITITADANTGAARNGSVEFILA	0.222
HMVPHTTSMVAEVQERLFNLNYDPGPINGRMDQATITAITRFQRNFSLPQTGQIDEGFLNTLRDARL	-0.73

Sequence	soluble fraction (log2)
HMVPLGDLSKNERRAMELAATNGNVTTRALADDAQVTKRTASTTLRRLAKRGLLEWIGKGPSDPGQFYRIP	-0.351
HMVPLTPGELVGTEVRVLWWKEGRGEVIASSRGHQLTLEAHSEDPLRAGSTAVVLEAADDVLVVTS	-0.734
HMVPPELEFLQSLMKIEDISELTAAIENNRDAVTDDFKEMLETVIENISGAPDTDPKLLERLKTIRTVLA	-0.0936
HMVPPVVRTIYGAGGKMTATFLFPGGYEVDAASGAELPGKYRVESISLDQVVLTDKDGNRVPVGFSSVAPT	0.149
HMVPQEVLPITLIIDGKLIEENLLYAKMTEQVLIQQLDINNIKSIKQILFAGLDSFGNFFYQEKQN	-2.5
HMVPTATVGENTSTLPVRQLPGGPVLVVLVRGDIVLPLPGHAFQNGDVWREISTVNGVIGWVPDEFLDY	-2.25
HMVPTVSVDRDDTLRFEGRPVDWDVLKRELGAVAGIDELKIYADAKVSALTVSKIMKSASEAGVLQFILVT	-0.0735
HMVQARDQNIEEGRQLVLRELDRLDLVNESLTDVAADMNMKSVEDMYAAIGAGDLRVGQVVHAVLKRAD	0.0164
HMVQDSEWWRNYQSAHDYFIQNGHLNVLRSDKKNTKLYNWIVGQRSSRWNSQGRINLLNSIGFIWDT	-3.01
HMVQISNTDDLYPIVQRIVDANPQSVEDYKNGKAKALGFLVGQMMKETKGKANPSMVNDLIIKAIEE	-0.022
HMVQIVINKEVQTTSQTILRENAGTSSRNIGYVDPNVKLRATLDRNSFYFIPEKKGWIMKSRVKLIEDLS	-3.77
HMVQMNMLELQEEMQRDRSWIIKHLFQDEYFRRKIAKFSQFPINDSGKYLFHRKSMLKFLNDYAEEIVER	-2.88
HMVQPSAAVRAHPVGAFVEQRQGLSDDQILALQKKWNEGIYARIQGTRWFLFSKDTPAVTSLLLVPDLP	-0.47
HMVQVHEWTNKAGRTIKAKFVRGDAQSVTIFLGGRNFVLKIADLSEESQALARKLSAPPPPP	-2.52
HMVQVPSLVGISEIEAKTLLTQAGFFVKIVEVFDANQPVGIVLAQAPSAGESRIIGSPVTITVNKAQ	-2.41
HMVQVRQPAGAGDLFAKGRLHLSTGTIHTVKPLEVDLPKGRLTVVTGVSGSGKTTLILESLLPALAAAAA	0.377
HMVRSLESESVYDRQRAYEIAYQLRTEERPYSFIATQLNKAGLRPQKAARYEWYSVQELLRSA	-1.38
HMVSDISTQYQKIINEALDKQPEVKLADIVTMIKEQTSNKVQNGIVENVAKQMNGIEIIKIGQAKGVRRTT	0.0482
HMVSDTGAIEAIVAQVLADNPKLVEGYLATPEDKRGKAIGPFIGLTRKAAAGVNPQVVMDVLKKKLSEL	-0.27
